Assay results taken from patent US20130084298A1 (ACADEMIA SINICA, published 2013).

Molecular target: T1, human clathrin heavy chain (CHC) (human, UniProt Q00610 2-1675)
T1 construct: Endogenous ~190 kDa protein of human cancer cell lines (MIA PaCa-2 and others); No recombinant construct was used; also called CLTC gene product
Test: hybridoma mAb, target identification

T1 sequence (Q00610 2-1675 limits assumed): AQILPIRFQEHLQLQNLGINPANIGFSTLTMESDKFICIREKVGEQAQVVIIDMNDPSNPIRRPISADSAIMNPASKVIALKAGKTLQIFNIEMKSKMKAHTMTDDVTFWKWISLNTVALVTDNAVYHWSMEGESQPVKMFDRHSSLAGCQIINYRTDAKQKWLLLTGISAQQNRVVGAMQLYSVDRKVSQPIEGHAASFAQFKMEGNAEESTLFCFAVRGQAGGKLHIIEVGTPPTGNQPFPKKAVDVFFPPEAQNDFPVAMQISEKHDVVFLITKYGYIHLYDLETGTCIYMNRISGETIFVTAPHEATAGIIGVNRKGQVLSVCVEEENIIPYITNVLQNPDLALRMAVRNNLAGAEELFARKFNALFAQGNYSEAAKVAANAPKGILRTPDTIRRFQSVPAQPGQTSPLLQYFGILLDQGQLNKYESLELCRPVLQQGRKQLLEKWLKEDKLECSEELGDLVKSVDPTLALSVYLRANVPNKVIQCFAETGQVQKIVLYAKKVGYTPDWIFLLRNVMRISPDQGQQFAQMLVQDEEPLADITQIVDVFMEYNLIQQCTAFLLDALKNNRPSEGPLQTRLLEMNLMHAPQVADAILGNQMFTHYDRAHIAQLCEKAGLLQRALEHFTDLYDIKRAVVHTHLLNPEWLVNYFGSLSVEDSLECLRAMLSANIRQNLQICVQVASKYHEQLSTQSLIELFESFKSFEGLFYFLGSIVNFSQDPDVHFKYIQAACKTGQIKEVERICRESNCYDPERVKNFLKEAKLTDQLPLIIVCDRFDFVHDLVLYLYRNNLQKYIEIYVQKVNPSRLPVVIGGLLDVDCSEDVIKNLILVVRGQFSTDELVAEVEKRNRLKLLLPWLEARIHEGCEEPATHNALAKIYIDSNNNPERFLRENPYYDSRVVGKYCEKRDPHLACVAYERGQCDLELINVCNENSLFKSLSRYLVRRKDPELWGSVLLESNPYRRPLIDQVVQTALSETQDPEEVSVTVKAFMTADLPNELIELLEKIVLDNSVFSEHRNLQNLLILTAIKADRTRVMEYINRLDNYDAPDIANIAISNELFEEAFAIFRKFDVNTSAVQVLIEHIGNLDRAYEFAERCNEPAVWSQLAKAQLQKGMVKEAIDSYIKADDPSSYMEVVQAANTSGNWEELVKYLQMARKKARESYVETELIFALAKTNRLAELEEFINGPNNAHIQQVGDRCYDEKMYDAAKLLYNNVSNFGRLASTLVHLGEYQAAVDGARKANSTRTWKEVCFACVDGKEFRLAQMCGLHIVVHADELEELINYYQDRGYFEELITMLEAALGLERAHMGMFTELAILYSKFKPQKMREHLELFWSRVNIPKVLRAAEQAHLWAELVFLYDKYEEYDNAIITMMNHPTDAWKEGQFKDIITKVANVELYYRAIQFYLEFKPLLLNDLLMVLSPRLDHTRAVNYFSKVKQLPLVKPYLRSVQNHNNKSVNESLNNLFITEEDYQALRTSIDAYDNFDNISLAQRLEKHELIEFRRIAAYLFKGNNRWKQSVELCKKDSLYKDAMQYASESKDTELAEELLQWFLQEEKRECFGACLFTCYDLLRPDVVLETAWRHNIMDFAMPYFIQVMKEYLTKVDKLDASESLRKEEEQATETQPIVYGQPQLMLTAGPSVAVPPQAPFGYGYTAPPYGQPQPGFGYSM

binding result: binds
B1: Pa65-2 (antibody, V domains shown)
VH: EVKLVESGGGLVKPGGSLNISCAASGFTFSNYVMSWVRQTPEKRLEWVATISSGDNYMYYPDSVKGRFTISSDNAKNTLFLQMSSLRSEDTALYYCARHFDNYEGNSMDYWGQGTSVTVSS
VL: DIVLTQSPATLSVTPGDSVSLSCRASQSIRSNLHWYQQKSHESPRLLIKYASQSISGIPSRFSGSGSGTDFILSINSVATEDFGVYFCQQSNSWPLTFGAGTKLELKR
notes: also called Pa65-2 mAb; anti-CHC monoclonal antibody
